Test results taken from patent US20230266317A1 (published 2023).

Key:
Test in all cases: cell-based or functional assay
[1] = target: UspA2H of M. catarrhalis AERIS isolate 415, on bacteria (Moraxella catarrhalis)
[2] = target: UspA2H of M. catarrhalis AERIS isolate 268, on bacteria (Moraxella catarrhalis)
[3] = target: UspA2H of M. catarrhalis AERIS isolate 240, on bacteria (Moraxella catarrhalis)
[4] = target: UspA2H of M. catarrhalis AERIS isolate 193, on bacteria (Moraxella catarrhalis)
[5] = target: T1, UspA2 of M. catarrhalis Dutch isolate F10, on bacteria (Moraxella catarrhalis)
T1 chain: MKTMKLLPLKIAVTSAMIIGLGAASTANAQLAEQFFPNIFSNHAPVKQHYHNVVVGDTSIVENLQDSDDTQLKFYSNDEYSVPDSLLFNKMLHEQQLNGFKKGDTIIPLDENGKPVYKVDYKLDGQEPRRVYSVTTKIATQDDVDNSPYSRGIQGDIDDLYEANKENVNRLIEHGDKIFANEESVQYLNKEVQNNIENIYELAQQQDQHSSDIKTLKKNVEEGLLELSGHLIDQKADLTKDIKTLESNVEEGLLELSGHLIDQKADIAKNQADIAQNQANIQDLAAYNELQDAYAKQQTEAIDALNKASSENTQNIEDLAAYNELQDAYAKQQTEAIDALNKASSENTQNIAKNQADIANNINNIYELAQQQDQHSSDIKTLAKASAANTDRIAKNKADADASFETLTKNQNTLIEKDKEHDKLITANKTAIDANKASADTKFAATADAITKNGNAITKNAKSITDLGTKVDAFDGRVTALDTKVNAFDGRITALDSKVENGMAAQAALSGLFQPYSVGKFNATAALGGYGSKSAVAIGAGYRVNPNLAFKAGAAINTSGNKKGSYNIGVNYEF

[6] = target: UspA2 of M. catarrhalis Denmark isolate BBH18 (wild type), on bacteria (Moraxella catarrhalis)
[7] = target: T2, UspA2 of M. catarrhalis strain ATCC 25238 (SEQ ID NO: 1), on bacteria (Moraxella catarrhalis)
T2 chain: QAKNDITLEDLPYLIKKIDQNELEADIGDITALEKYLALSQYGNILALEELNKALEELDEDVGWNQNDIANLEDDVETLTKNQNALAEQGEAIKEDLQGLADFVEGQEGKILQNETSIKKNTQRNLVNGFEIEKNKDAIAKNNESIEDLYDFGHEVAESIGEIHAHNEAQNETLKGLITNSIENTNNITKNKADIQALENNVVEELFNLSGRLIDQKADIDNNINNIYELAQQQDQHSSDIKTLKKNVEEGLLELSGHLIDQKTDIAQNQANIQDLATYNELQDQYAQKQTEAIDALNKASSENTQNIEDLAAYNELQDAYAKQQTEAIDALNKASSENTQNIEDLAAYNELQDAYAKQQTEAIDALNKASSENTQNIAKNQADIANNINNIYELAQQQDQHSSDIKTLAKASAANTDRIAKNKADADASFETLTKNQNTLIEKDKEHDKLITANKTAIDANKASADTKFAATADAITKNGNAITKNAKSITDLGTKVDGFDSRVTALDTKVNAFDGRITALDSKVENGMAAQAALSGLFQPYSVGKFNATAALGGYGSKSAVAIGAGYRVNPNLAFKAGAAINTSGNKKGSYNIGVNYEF

[8] = target: UspA1 of M. catarrhalis strain ATCC 43617, on bacteria (Moraxella catarrhalis)
[9] = target: UspA2H of M. catarrhalis AERIS isolate 296, on bacteria (Moraxella catarrhalis)

B1: anti-UspA2 monoclonal antibody FHUSPA2/10 (antibody, V domains shown)
VH: EVQLQQSGTVLARPGASVKMSCKASGYSFTSYWMHWVKQRPGQGLEWIGAIYPGNSDTSYNQKFKGKAKLTAVTSASTAYMELSNLTNEDSAVYSCTLLRFLDAYWGQGTLVTVSA
VL: QIVLSQSPAILSASPGEKVTMTCRASSSVSYMHWYQQKPGSSPKPWIYATSNLASGVPARFSGSGSGTSYSLTISRVEAEDAATYYCQQWSSNPPTFGGGSKLEIK
bactericidal activity (mid-point titer) [1]: 256000 mid-point titer (reciprocal dilution inducing 50% of killing) | bactericidal activity (mid-point titer) [2]: > 384000 mid-point titer (reciprocal dilution inducing 50% of killing) | bactericidal activity (mid-point titer) [3]: > 25600 mid-point titer (reciprocal dilution inducing 50% of killing) | bactericidal activity (mid-point titer) [4]: > 640000 mid-point titer (reciprocal dilution inducing 50% of killing) | bactericidal activity (mid-point titer) [5]: 528000 mid-point titer (reciprocal dilution inducing 50% of killing) | bactericidal activity (mid-point titer) [6]: 386000 mid-point titer (reciprocal dilution inducing 50% of killing) | bactericidal activity (mid-point titer) [7]: 1.88e+06 mid-point titer (reciprocal dilution inducing 50% of killing) | bactericidal activity (mid-point titer) [8]: < 100 mid-point titer (reciprocal dilution inducing 50% of killing) | bactericidal activity (mid-point titer) [9]: 114000 mid-point titer (reciprocal dilution inducing 50% of killing)
